The source of these data is article PMC9852558 (The Journal of Biological Chemistry, 2022).

Experiment in all cases: SPR
For assay [1], the target named is FGFR1β (IIIc)/Fc (Homo sapiens, UniProt P11362, strain, biotinylated).
In assay [2] the target is FGFR2 (IIIb) (Homo sapiens (assumed), UniProt P21802-3).
Assay [3] has as its target FGFR3 (IIIb) (Homo sapiens (assumed), UniProt P22607-2).
The target in assay [4] is FGFR4 (Homo sapiens (assumed), UniProt P22455).
The target of assay [5] is FGFR1 (IIIb) (Homo sapiens, FGFR1 splice form IIIb, UniProt P11362, strain).
Chain of FGFR1 (IIIb) (P11362 whole entry, looked up, change not shown, canonical isoform): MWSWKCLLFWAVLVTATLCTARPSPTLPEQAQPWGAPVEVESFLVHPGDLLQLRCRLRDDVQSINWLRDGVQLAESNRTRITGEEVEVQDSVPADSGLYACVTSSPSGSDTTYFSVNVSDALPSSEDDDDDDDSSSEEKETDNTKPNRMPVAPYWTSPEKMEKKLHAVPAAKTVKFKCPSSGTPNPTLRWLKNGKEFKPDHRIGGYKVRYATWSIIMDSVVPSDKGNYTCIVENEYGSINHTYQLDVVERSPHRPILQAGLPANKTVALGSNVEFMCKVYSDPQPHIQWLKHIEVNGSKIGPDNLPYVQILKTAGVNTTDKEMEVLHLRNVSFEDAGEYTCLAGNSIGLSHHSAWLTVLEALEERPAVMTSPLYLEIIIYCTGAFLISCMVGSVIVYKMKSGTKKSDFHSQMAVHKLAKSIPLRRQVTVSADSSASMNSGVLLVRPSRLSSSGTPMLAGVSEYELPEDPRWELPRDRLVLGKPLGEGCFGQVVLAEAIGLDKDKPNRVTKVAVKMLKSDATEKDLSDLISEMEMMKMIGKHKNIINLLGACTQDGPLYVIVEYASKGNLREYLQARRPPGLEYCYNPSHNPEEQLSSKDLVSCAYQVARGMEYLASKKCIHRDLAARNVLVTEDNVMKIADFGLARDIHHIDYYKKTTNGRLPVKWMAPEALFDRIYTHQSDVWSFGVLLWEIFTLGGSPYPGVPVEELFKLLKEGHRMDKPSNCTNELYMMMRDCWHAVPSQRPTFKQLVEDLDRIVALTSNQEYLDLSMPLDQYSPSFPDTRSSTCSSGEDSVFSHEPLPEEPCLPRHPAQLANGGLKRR

Chain of FGFR4 (P22455 22-802): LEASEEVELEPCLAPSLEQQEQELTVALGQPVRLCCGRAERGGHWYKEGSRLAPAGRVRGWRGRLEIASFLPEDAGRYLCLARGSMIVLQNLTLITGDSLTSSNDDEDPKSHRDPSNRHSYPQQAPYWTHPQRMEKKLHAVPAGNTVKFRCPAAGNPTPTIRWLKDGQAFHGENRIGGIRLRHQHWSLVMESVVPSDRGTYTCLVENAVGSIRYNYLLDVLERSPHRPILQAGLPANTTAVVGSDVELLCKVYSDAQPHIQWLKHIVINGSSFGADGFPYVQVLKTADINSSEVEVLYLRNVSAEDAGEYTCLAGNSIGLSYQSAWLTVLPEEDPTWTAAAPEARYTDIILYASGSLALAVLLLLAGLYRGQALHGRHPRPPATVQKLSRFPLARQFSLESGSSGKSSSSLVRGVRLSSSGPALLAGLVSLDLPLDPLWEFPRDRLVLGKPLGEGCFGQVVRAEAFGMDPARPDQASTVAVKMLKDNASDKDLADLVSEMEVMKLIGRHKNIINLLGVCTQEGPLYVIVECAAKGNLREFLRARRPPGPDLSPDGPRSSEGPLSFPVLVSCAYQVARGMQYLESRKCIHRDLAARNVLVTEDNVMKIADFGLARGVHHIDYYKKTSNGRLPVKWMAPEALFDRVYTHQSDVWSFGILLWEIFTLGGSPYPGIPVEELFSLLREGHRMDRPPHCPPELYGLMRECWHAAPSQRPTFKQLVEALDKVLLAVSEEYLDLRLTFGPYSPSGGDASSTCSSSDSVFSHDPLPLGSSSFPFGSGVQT

B1: clone VM35 (VHH)
VHH: QVQLVESGGGLVQAGGSLRLSCAVPGSIFRFNTMGWYRQPPGKQRELVAQMSRGGITKYGDSVKGRFTITRDNAKNTVHLQMNSLKPEDTAVYYCAGSYYSGSYYYPSPQGFSVWGQGTQVTVSP
On to B1, for which, in assay [1], the dissociation constant Kd was 1.02 nM, the koff is 0.00114 s⁻¹ and the kon stood at 1.11e+06 M⁻¹ s⁻¹.

B2: clone VM34 (VHH)
VHH: QLQLVESGGGSVQAGGSLRLSCAASRSLSRFNVWTWYRQAPVKQRELVASITKSGDTNYAESVKGRFIISRDDDKNTVYLQMNNLKSEDTGIYYCAGSYYSGSYLYPSPGGFSVWGQGTQVTVSS
As for B2, the binding result in assay [2] and in assay [3] was “no binding” throughout. Besides, the Kd in assay [4] amounted to 22.2 nM; in assay [1], 1.74 nM; in assay [5] it was 92.8 nM. For the same molecule, the results for the off-rate constant (koff) in assay [4], in assay [1] and in assay [5] were 0.0527 s⁻¹, 0.00142 s⁻¹ and 0.0254 s⁻¹, respectively. Moreover, the association rate constant (kon) is 2.37e+06 M⁻¹ s⁻¹ in assay [4], 819000 M⁻¹ s⁻¹ in assay [1] and 274000 M⁻¹ s⁻¹ in assay [5].
